{"source": "paper PMC3376730", "about": "“Crystal structure of Caulobacter crescentus polynucleotide phosphorylase reveals a mechanism of RNA substrate channelling and RNA degradosome assembly” (Open Biology, 2012)", "binders": {"B1": {"name": "Caulobacter crescentus polynucleotide phosphorylase (enzyme, UniProt B8GWZ0 1-712, looked up)", "chain": "MFDIKRKTIEWGGKTLVLETGRIARQADGAVLATMGETVVLATAVFAKSQKPGQDFFPLTVNYQEKTFAAGKIPGGFFKREGRPSEKETLVSRLIDRPIRPLFVKGFKNEVQVVVTVLQHDLENDPDILGMVAASAALCLSGAPFMGPIGAARVGWVDGAYVLNPTLDEMKESKMDLVVAGTADAVMMVESEIQELSEEIVLGGVNFAHQQMQAVIDAIIDLAEHAAKEPFAFEPEDTDAIKAKMKDLVGADIAAAYKIQKKQDRYEAVGAAKKKAIAALGLSDENPTGYDPLKLGAIFKELEADVVRRGILDTGLRIDGRDVKTVRPILGEVGILPRTHGSALFTRGETQAIVVATLGTGDDEQFIDALEGTYKESFLLHYNFPPYSVGETGRMGSPGRREIGHGKLAWRALRPMLPTKEDFPYTIRLVSEITESNGSSSMATVCGSSLAMMDAGVPLVRPVSGIAMGLILEQDGFAVLSDILGDEDHLGDMDFKVAGTSEGLTSLQMDIKIAGITPAIMEQALAQAKEGRAHILGEMNKAMDAPRADVGDFAPKIETINIPTDKIREVIGSGGKVIREIVATTGAKVDINDDGVVKVSASDGAKIKAAIDWIKSITDEAEVGKIYDGKVVKVVDFGAFVNFFGAKDGLVHVSQISNERVAKPSDVLKEGQMVKVKLLGFDDRGKTKLSMKVVDQETGEDLSKKEAAAEEA", "notes": "polynucleotide phosphorylase, pnp gene (CC0034), amplified from genomic DNA of C. crescentus strain NA1000 with primers from the start codon to the stop codon; Two alternative constructs were made (GST-PNPase from pGEX-6p-1, GST cut off with PreScission protease; 6xHis-PNPase from pET-DUET); the two tags are not on one chain; also called PNPase; C. crescentus PNPase; source: E. coli, purified …"}}, "key": {"[1]": {"molecular_target": "the molecule itself", "assay": "crystal structure; apo-PNPase co-crystallised with the peptide at 2 : 1 molar excess; rhombohedral (R3) and hexagonal (P6_(3)) forms, sitting drop, 18°C"}, "[2]": {"molecular_target": "B1", "assay": "crystal structure; apo-PNPase co-crystallised with the peptide at 2 : 1 molar excess; rhombohedral (R3) and hexagonal (P6_(3)) forms, sitting drop, 18°C", "settings": "both partners purified"}, "[3]": {"molecular_target": "T1, PNPase (polynucleotide phosphorylase) (Caulobacter crescentus, UniProt Q9AC32 1-712)", "T1 sequence": "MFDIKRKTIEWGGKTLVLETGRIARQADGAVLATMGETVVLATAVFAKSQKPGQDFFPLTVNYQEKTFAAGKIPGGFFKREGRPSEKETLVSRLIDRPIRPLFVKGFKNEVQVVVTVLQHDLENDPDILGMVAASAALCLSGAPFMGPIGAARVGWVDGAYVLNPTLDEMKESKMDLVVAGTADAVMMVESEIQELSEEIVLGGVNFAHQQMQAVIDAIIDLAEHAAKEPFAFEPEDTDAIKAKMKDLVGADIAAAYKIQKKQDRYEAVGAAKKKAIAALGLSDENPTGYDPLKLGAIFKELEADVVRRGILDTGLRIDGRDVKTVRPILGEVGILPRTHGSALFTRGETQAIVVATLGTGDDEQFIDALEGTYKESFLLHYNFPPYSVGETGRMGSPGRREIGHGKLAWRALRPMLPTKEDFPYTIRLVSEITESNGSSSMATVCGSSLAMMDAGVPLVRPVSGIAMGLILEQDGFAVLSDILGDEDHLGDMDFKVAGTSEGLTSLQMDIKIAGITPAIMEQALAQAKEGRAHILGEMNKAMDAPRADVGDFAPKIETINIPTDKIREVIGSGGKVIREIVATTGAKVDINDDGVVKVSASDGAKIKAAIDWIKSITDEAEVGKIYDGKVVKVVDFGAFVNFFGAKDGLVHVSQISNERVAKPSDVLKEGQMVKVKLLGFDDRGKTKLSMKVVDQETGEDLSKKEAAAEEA", "assay": "X-ray crystallography; co-crystallized with apo-PNPase; same cell and space group (P22121) as endogenous RNA complex; Crystals of RNA-bound PNPase: 24% w/v PEG 3350, 0.1 M bis-Tris pH 5.5, 0.1 M ammonium acetate, 18 C", "settings": "protein: recombinant; tags: 6xHis N-terminal (pET-DUET) or N-terminal GST (pGEX-6p-1) removed with PreScission; chain copies: 3"}, "[4]": {"molecular_target": "B1", "assay": "native gel or EMSA; approximate fourfold molar excess of GST-peptide mixed with PNPase, 20 mM Tris–HCl pH 7.5, 200 mM NaCl, room temperature 10 min, 8 per cent non-denaturing PAGE", "settings": "both partners purified"}}}
{"binder": "B1", "values": [{"measurement": "stoichiometry N", "setting": "[1]", "value": 3}]}
{"binder": "EKPRRGWWRR (last 10 amino acids of C. crescentus RNase E; also called GWW peptide; RNase E recognition peptide; source: synthetic peptide (Cambridge Research Biochemicals))", "note": "[C. crescentus PNPase recognition peptide from RNase E (EKPRRGWWRR)]", "values": [{"measurement": "binding result", "setting": "[2]", "value": "binds"}]}
{"binder": "GUUUAUUGCCGUUCUUGUUAUAUGCCUU (ssRNA)", "note": "[27mer MicC portion RNA]", "values": [{"measurement": "binding result", "setting": "[3]", "value": "binds"}]}
{"binder": "TAPPEKPRRGWWRR (C-terminal PNPase recognition peptide of C. crescentus RNase E, encoded by the 3' end of the rne gene (cc1877); Cloned in pGEX-6p-1 through BamHI and XhoI; also called GST–GWW; GST–GWW peptide; source: E. coli, purified (glutathione sepharose); not shown: GST, N-terminal, kept)", "note": "[GST fused to the PNPase recognition peptide of RNase E (TAPPEKPRRGWWRR)]", "values": [{"measurement": "binding result", "setting": "[4]", "value": "binds"}]}
